In article PMC7710921 (Structure (London, England : 1993), 2020):
Values belong to the molecule of their own block, whether it stands above or below them.

Legend:
[1] = target: unlabelled hTBP (human TATA-box Binding Protein) (human) (UniProt P20226); experiment: single-molecule two-colour nanometer co-localisation
[2] = target: T1, His-tagged Rap74 (human, UniProt P35269 1-517); experiment: reconstitution by refolding and Ni-NTA co-purification
T1 sequence (looked up): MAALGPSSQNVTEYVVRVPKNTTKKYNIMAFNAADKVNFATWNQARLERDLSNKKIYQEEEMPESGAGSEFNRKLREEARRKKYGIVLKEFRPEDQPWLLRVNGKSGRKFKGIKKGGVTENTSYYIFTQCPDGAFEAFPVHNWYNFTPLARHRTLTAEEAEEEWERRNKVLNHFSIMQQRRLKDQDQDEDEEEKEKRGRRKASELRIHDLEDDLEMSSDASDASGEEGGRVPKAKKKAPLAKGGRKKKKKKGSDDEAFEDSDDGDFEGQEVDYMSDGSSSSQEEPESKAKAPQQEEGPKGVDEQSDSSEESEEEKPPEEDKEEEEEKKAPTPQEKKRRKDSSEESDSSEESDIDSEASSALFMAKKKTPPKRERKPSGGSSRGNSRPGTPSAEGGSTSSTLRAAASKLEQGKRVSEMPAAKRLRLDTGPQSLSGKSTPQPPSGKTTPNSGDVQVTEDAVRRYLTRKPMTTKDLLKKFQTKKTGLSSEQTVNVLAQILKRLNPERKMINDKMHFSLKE

percent of TFIIA spots co-localised with TATA-box DNA in the presence of TBP [1]: 45%
Molecule: Alexa647-labelled hTFIIA (from UniProt P52655 1-376; P52657 1-109) (complex)

binding result [2]: binds
B1: Rap30 (natural protein, human, UniProt P13984 1-249, looked up)
chain: MAERGELDLTGAKQNTGVWLVKVPKYLSQQWAKASGRGEVGKLRIAKTQGRTEVSFTLNEDLANIHDIGGKPASVSAPREHPFVLQSVGGQTLTVFTESSSDKLSLEGIVVQRAECRPAASENYMRLKRLQIEESSKPVRLSQQLDKVVTTNYKPVANHQYNIEYERKKKEDGKRARADKQHVLDMLFSAFEKHQYYNLKDLVDITKQPVVYLKEILKEIGVQNVKGIHKNTWELKPEYRHYQGEEKSD
